Test results from US20260265381A1 (Hoffmann-La Roche, published 2026).

Experiments:
[1] = biological target: T1, human CD3 expressed on cells (Jurkat NFAT reporter cells; human T cells isolated from PBMCs) (human, UniProt P07766 23-207); experiment: flow cytometry on Jurkat NFAT cells; IgG1 PGLALA format; detection with PE anti-human IgG Fc F(ab')2
T1 construct: on cells it is part of the CD3/TCR complex; also called CD3 on Jurkat cells; CD3 expressed on T-cells

[2] = biological target: T2, recombinant single-chain HLA-G monomer/human HLA-G β2M MHC class I complex (human); experiment: SPR relative active concentration; after 13 days PBS pH 7.4 at 37 C
T2 construct: also called wt-HLA-G complex; wt-HLA-G antigen

[3] = biological target: T2, recombinant single-chain HLA-G …; experiment: SPR multi cycle kinetics (Biacore T200, 25 C); antibody captured via Fc on CM3 chip, HLA-G complex as analyte
[4] = biological target: T3, rat RT1 (SEQ ID NO: 43) (rat); experiment: SPR (Biacore T200, 25 C); antibody immobilized on CM3 chip, single-chain peptide-MHC as analyte
T3 construct: Recombinant single-chain peptide-MHC complex construct (peptide, β2M, MHC class I molecule); also called rat RT1A β2M MHC class I complex
T3 chain: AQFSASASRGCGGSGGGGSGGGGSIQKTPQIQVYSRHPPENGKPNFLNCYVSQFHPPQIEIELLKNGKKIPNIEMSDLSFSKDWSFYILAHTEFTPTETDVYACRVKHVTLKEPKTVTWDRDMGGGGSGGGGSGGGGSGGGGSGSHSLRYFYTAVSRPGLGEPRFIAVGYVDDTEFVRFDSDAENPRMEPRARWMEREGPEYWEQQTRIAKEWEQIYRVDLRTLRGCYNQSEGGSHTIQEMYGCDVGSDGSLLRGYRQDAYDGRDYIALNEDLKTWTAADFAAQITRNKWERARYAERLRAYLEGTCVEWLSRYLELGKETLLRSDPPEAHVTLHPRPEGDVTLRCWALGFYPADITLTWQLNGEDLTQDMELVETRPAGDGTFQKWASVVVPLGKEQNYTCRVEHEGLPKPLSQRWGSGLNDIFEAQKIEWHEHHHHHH

[5] = biological target: T4, human HLA-G β2M MHC class I complex, wherein the HLA-G specific amino acids have been replaced by HLA-A … (human); experiment: as above
T4 construct: Recombinant single-chain peptide-MHC complex construct; also called HLA-A consensus on HLA-G frame; degrafted HLA-G

[6] = biological target: T5, human HLA-G expressed on cells (JEG3 cells, natural; SKOV3 cells transfected with recombinant HLA-G) (human, UniProt P17693 25-338); experiment: flow cytometry on JEG3 cells (natural HLA-G); antibody at 2 µg/ml per legend paragraph 51 (10 µg/ml per paragraph 491); detection with goat anti-human IgG (H+L) Alexa 488
T5 construct: also called SKOV3 HLA-G

[7] = biological target: T2, recombinant single-chain HLA-G …; experiment: SPR relative active concentration; Ref. (frozen at -80 C)
[8] = biological target: T5, human HLA-G expressed on cells (JEG3 …); experiment: flow cytometry; JEG3 cells pre-incubated with antibody, competitor ILT2-c-Myc-Fc at 10 ug/ml
[9] = biological target: T2, recombinant single-chain HLA-G …; experiment: SPR relative active concentration; after 13 days His pH 6.0 at 40 C
[10] = biological target: T5, human HLA-G expressed on cells (JEG3 …); experiment: flow cytometry on SKOV3 HLA-G cells (SKOV3 transfected with HLA-G); antibody at 2 µg/ml per legend paragraph 51 (10 µg/ml per paragraph 491); detection with goat anti-human IgG (H+L) Alexa 488
[11] = biological target: T2, recombinant single-chain HLA-G …; experiment: SPR single cycle kinetics (Biacore T200, 25 C); antibody captured via Fc on CM3 chip, HLA-G complex as analyte
[12] = biological target: T2, recombinant single-chain HLA-G …; experiment: SPR multi cycle kinetics

T1 sequence (P07766 23-207 limits assumed): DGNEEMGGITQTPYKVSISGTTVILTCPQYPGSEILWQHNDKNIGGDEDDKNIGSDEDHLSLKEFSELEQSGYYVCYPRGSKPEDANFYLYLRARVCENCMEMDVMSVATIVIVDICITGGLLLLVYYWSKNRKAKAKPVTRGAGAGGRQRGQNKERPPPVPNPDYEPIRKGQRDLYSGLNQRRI

B1: P035-093 (P035) human IgG1 PGLALA (antibody, V domains shown)
VH: EVQLLESGGGLVQPGGSLRLSCAASGFTFSSYAMNWVRQAPGKGLEWVSRIRSKYNNYATYYADSVKGRFTISRDDSKNTLYLQMNSLRAEDTAVYYCVRASNFPASYVSYFAYWGQGTLVTVSS
VL: QAVVTQEPSLTVSPGGTVTLTCGSSTGAVTTSNYANWVQEKPGQAFRGLIGGTNKRAPGTPARFSGSLLGGKAALTLSGAQPEDEAEYYCALWYSNLWVFGGGTKLTVLR
[1]
  EC50 (read off the curve): ~0.5 nM

B2: CD3orig human IgG1 PGLALA (antibody, V domains shown)
VH: not shown
VL: QAVVTQEPSLTVSPGGTVTLTCGSSTGAVTTSNYANWVQEKPGQAFRGLIGGTNKRAPGTPARFSGSLLGGKAALTLSGAQPEDEAEYYCALWYSNLWVFGGGTKLTVLR
notes: Human IgG1 format with P329G L234A L235A mutations in the Fc region
[1]
  EC50 (read off the curve): ~0.8 nM

B3: HLA-G-0090 (antibody, IgG1, V domains shown)
VH: QVQLQQSGPGLLKPSQTLSLTCAISGDSVSSNRAAWNWIRQSPSRGLEWLGRTYYRSKWYNDYAVSVQGRITLIPDTSKNQFSLRLNSVTPEDTAVYYCASVRAVAPFDYWGQGVLVTVSS
VL: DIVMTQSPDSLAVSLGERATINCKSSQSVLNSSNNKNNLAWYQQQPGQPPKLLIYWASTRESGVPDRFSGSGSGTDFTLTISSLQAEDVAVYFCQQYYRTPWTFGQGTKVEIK
modifications: N-glycosylation motif NSS in CDR-L1 at light chain positions 31 to 33 (Fab glycosylation detected)
notes: the parental antibody was expressed alongside them; also called parental antibody
[2]
  relative HLA-G binding signal compared to Ref (as 100%), by SPR RAC: 96%
[3]
  Kd: 1.4 nM
  koff: 0.00178 s⁻¹
  kon: 1.3e+06 M⁻¹ s⁻¹
  t½: 6.5 min
[4]
  binding result: no binding
[5]
  binding result: no binding
[6]
  MFI: 6060
[7]
  relative HLA-G binding signal compared to Ref (as 100%), by SPR RAC: 100%
[8]
  inhibition of ILT2 binding to Jeg3 cells: 72%
[9]
  relative HLA-G binding signal compared to Ref (as 100%), by SPR RAC: 99%
[10]
  MFI: 13100
[11]
  Kd: 1.2 nM
  koff: 0.00138 s⁻¹
  kon: 1.19e+06 M⁻¹ s⁻¹
  t½: 8.35 min

B4: HLA-G-0090-VL-S32P (antibody, IgG1, V domains shown)
VH: QVQLQQSGPGLLKPSQTLSLTCAISGDSVSSNRAAWNWIRQSPSRGLEWLGRTYYRSKWYNDYAVSVQGRITLIPDTSKNQFSLRLNSVTPEDTAVYYCASVRAVAPFDYWGQGVLVTVSS
VL: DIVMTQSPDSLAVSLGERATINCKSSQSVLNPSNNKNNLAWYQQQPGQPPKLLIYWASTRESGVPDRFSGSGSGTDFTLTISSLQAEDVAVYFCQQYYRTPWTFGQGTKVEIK
notes: also called HLA-G-0090-S32P
[2]
  relative HLA-G binding signal compared to Ref (as 100%), by SPR RAC: 98%
[3]
  Kd: 1.2 nM
  koff: 0.00157 s⁻¹
  kon: 1.27e+06 M⁻¹ s⁻¹
  t½: 7.34 min
[4]
  binding result: no binding
[5]
  binding result: no binding
[6]
  MFI: 6330
[7]
  relative HLA-G binding signal compared to Ref (as 100%), by SPR RAC: 100%
[8]
  inhibition of ILT2 binding to Jeg3 cells: 72%
[9]
  relative HLA-G binding signal compared to Ref (as 100%), by SPR RAC: 99%
[10]
  MFI: 13900
[11]
  Kd: 1 nM
  koff: 0.00124 s⁻¹
  kon: 1.19e+06 M⁻¹ s⁻¹
  t½: 9.29 min

B5: HLA-G-0090-VL-S33A (antibody, IgG1, V domains shown)
VH: QVQLQQSGPGLLKPSQTLSLTCAISGDSVSSNRAAWNWIRQSPSRGLEWLGRTYYRSKWYNDYAVSVQGRITLIPDTSKNQFSLRLNSVTPEDTAVYYCASVRAVAPFDYWGQGVLVTVSS
VL: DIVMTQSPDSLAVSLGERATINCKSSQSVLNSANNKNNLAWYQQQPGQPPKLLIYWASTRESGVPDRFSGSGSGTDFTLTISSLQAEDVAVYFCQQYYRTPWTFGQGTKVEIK
notes: also called HLA-G-0090-S33A
[2]
  relative HLA-G binding signal compared to Ref (as 100%), by SPR RAC: 96%
[3]
  Kd: 1.2 nM
  koff: 0.00149 s⁻¹
  kon: 1.24e+06 M⁻¹ s⁻¹
  t½: 7.76 min
[4]
  binding result: no binding
[5]
  binding result: no binding
[6]
  MFI: 6380
[7]
  relative HLA-G binding signal compared to Ref (as 100%), by SPR RAC: 100%
[8]
  inhibition of ILT2 binding to Jeg3 cells: 72%
[9]
  relative HLA-G binding signal compared to Ref (as 100%), by SPR RAC: 99%
[10]
  MFI: 14300
[11]
  Kd: 1 nM
  koff: 0.00124 s⁻¹
  kon: 1.24e+06 M⁻¹ s⁻¹
  t½: 9.3 min

B6: HLA-G-0090-VL-S33P (antibody, IgG1, V domains shown)
VH: QVQLQQSGPGLLKPSQTLSLTCAISGDSVSSNRAAWNWIRQSPSRGLEWLGRTYYRSKWYNDYAVSVQGRITLIPDTSKNQFSLRLNSVTPEDTAVYYCASVRAVAPFDYWGQGVLVTVSS
VL: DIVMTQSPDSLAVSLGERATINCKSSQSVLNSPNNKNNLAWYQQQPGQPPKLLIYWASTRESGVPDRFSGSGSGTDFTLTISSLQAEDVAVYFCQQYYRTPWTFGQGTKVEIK
notes: also called HLA-G-0090-S33P
[3]
  Kd: 2.7 nM
  koff: 0.00368 s⁻¹
  kon: 1.36e+06 M⁻¹ s⁻¹
  t½: 3.13 min
[12]
  factor of loss of binding affinity compared to HLA-G-0090: 2 fold
[11]
  Kd: 1.8 nM
  koff: 0.00236 s⁻¹
  kon: 1.34e+06 M⁻¹ s⁻¹
  t½: 4.91 min

B7: HLA-G-0090-VL-S33D (antibody, IgG1, V domains shown)
VH: QVQLQQSGPGLLKPSQTLSLTCAISGDSVSSNRAAWNWIRQSPSRGLEWLGRTYYRSKWYNDYAVSVQGRITLIPDTSKNQFSLRLNSVTPEDTAVYYCASVRAVAPFDYWGQGVLVTVSS
VL: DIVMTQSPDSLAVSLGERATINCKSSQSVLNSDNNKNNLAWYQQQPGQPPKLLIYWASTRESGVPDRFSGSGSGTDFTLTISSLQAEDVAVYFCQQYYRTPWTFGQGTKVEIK
notes: also called HLA-G-0090-S33D
[3]
  Kd: 7.4 nM
  koff: 0.00667 s⁻¹
  kon: 897000 M⁻¹ s⁻¹
  t½: 1.73 min
[12]
  factor of loss of binding affinity compared to HLA-G-0090: 5 fold
[11]
  Kd: 4.8 nM
  koff: 0.00344 s⁻¹
  kon: 717000 M⁻¹ s⁻¹
  t½: 3.36 min
